Data on twelve molecules can be found in patent publication US20250076311A1 (Chugai, published 2025).

Substitutions are numbered along the chain they refer to.

In assay [1] the target is T1, cynomolgus monkey FcγRIIIaS extracellular domain with C-terminal His-tag (cynomolgus monkey, UniProt A3RFZ7 21-206 (rhesus entry)).
T1 construct: also called cyno FcgRIIIaS; cynoFcγRIIIaS; not shown: His-tag added to the C-terminus
As to the kind of experiment: SPR (BIACORE); KD of SG1 / KD of variant. A general note: In SPR one partner is held on a chip, and binding of the other changes the refractive index at the surface.

Assay [2] addresses T1, cynomolgus monkey FcγRIIIaS …. As to the kind of experiment: SPR (BIACORE), antibody captured, FcgR analyte.
In assay [3] the target is T2, human FcγRIIaH extracellular domain with C-terminal His-tag (human, UniProt P12318 34-217).
T2 construct: also called human FcgRIIaH; FcγRIIa type H; not shown: His-tag added to the C-terminus
T2 sequence: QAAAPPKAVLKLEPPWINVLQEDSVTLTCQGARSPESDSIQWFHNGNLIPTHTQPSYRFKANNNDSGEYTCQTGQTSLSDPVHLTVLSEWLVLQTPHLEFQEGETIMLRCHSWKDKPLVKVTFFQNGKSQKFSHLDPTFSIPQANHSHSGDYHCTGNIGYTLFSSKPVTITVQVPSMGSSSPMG
As to the kind of experiment: SPR (BIACORE), antibody captured, FcgR analyte.

For assay [4], the target named is T3, human FcγRIIIaV extracellular domain with C-terminal His-tag (human, UniProt P08637 17-208).
T3 construct: also called human FcgRIIIaV; not shown: His-tag added to the C-terminus
As to the kind of experiment: SPR (BIACORE), antibody captured, FcgR analyte.
T3 sequence (P08637 17-208 F176V): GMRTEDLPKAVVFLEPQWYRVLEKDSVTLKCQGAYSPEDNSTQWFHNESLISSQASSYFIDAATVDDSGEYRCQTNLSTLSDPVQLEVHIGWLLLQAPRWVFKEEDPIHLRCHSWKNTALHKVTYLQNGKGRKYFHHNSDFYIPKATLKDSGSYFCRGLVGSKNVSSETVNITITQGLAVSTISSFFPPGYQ

Assay [5] deals with T4, cynomolgus monkey FcγRIIa3 extracellular domain with C-terminal His-tag (cynomolgus monkey).
T4 construct: also called cyno FcgRIIa3; cynoFcγRIIa3; not shown: His-tag added to the C-terminus
T4 chain: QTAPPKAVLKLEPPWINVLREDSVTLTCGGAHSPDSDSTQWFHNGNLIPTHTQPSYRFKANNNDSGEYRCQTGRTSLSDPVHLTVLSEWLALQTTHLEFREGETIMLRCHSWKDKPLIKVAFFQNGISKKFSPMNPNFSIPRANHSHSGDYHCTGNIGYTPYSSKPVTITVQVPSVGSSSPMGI
As to the kind of experiment: SPR (BIACORE), antibody captured, FcgR analyte.

Assay [6] addresses T5, human FcγRIIaR extracellular domain with C-terminal His-tag (human, UniProt P12318 34-217).
T5 construct: also called human FcgRIIaR; FcγRIIa type R; not shown: His-tag added to the C-terminus
T5 chain: T2 sequence with H134R
As to the kind of experiment: SPR (BIACORE), antibody captured, FcgR analyte.

Assay [7] concerns the target T6, human FcγRIIb extracellular domain with C-terminal His-tag (human, UniProt P31994 43-217).
T6 construct: also called human FcgRIIb; not shown: His-tag added to the C-terminus
T6 sequence: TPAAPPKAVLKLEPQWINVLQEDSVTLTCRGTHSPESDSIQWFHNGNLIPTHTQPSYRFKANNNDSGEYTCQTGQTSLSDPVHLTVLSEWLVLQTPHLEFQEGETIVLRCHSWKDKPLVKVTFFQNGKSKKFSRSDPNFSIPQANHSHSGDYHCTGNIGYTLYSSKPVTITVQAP
As to the kind of experiment: SPR (BIACORE), antibody captured, FcgR analyte.

The target in assay [8] is T7, cynomolgus monkey FcγRIIb extracellular domain with C-terminal His-tag (cynomolgus monkey).
T7 construct: also called cyno FcgRIIb; cynoFcγRIIb; not shown: His-tag added to C-terminus
T7 chain: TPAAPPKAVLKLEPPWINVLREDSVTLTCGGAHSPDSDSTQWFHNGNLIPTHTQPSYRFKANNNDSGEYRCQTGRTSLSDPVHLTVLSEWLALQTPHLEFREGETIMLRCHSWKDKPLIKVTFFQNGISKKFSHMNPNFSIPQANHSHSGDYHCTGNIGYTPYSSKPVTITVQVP
As to the kind of experiment: SPR Biacore, antibody captured, FcgR analyte.

Assay [9] concerns the target T8, cynomolgus monkey FcγRIIIaS extracellular domain with C-terminal His-tag (cynomolgus monkey, UniProt A3RFZ7 21-206 (rhesus entry)).
T8 construct: also called cyno FcgRIIIaS; cynoFcγRIIIaS; not shown: His-tag added to C-terminus
As to the kind of experiment: SPR Biacore, antibody captured, FcgR analyte.

Assay [10] concerns the target T9, human FcγRIIIaV extracellular domain with C-terminal His-tag (human, UniProt P08637 17-208).
T9 construct: also called human FcgRIIIaV; not shown: His-tag added to C-terminus
As to the kind of experiment: SPR Biacore, antibody captured, FcgR analyte.
T9 sequence (P08637 17-208 F176V): as the sequence (P08637 17-208 F176V) above

Assay [11] has as its target T10, cynomolgus monkey FcγRIIa2 extracellular domain with C-terminal His-tag (cynomolgus monkey).
T10 construct: also called cyno FcgRIIa2; cynoFcγRIIa2; not shown: His-tag added to C-terminus
T10 chain: T4 chain with I127K, K130N, P133H, R142Q
As to the kind of experiment: SPR Biacore, antibody captured, FcgR analyte.

Assay [12] has as its target T11, human FcγRIIb extracellular domain with C-terminal His-tag (human, UniProt P31994 43-217).
T11 construct: also called human FcgRIIb; not shown: His-tag added to C-terminus
T11 sequence: T6 sequence
As to the kind of experiment: SPR Biacore, antibody captured, FcgR analyte.

Assay [13] deals with T12, cynomolgus monkey FcγRIIIaS extracellular domain, His-tagged (cynomolgus monkey, UniProt Q8SPW2 21-206 at identity 1.00)).
T12 construct: also called cyno FcγRIIIaS; cynoFcgRIIIaS
T12 chain: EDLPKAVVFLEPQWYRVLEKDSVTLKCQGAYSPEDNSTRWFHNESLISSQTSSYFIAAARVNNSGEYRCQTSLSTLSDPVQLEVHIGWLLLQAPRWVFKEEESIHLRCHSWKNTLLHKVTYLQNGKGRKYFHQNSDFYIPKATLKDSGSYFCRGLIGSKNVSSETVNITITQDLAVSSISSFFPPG
As to the kind of experiment: SPR (BIACORE), antibody captured, FcγR analyte, 25 C; KD of SG1 divided by KD of variant. How it is done:
The kinetic analysis of interactions between these antibodies and FcγR was carried out using BIACORE® T200 or BIACORE® 4000 (GE Healthcare). HBS-EP+ (GE Healthcare) was used as the running buffer, and the measurement temperature was set to 25° C. […] After the measurement, the antibody captured on the chip was washed off by allowing reaction with 10 mM glycine-HCl, pH1.5 and 25 mM NaOH so that the chip was regenerated and used repeatedly. The sensorgrams obtained as measurement results were analyzed by the 1:1 Langmuir binding model using the BIACORE® Evaluation Software to calculate the binding rate constant ka (L/mol/s) and dissociation rate constant kd (1/s), and the dissociation constant KD (mol/L) was calculated from these values. […] Regarding such interactions, KD values were calculated using the following 1:1 binding model described in BIACORE® T100 Software Handbook BR1006-48 Edition AE.

B1: M103205H795-MY051/M103202L889-SK1 (antibody, human IgG1, kappa, name in EU numbering)
heavy: QVTLKESGPVLVKPTETLTLTCTVSGIDLSHDDISWVRQAPGKGLEWVGIISYAGSTYYASWAKGRLTISKDTSKNQVVLTMTNMDPVDTATYYCARGVPAYSHGGDLWGQGTLVTVSSASTKGPSVFPLAPSSKSTSGGTAALGCLVKDYFPEPVTVSWNSGALTSGVHTFPAVLQSSGLYSLSSVVTVPSSSLGTQTYICNVNHKPSNTKVDKKVEPKSCDKTHTCPPCPAPELLNGPSVFLFPPKPKDTLMISRTPEVTCVVVDVSEEDGEVKFNWYVDGVEVHNAKTKPREEQYNSTYRVVSVLTVLHQDWLNGKEYKCKVSNKALPAPIEKTISKAKGQPREPQVYTLPPSREEMTKNQVSLTCLVKGFYPSDIAVEWESNGQPENNYKTTPPVLDSDGSFFLYSKLTVDKSRWQQGNVFSCSVMHEALHNHYTQKSLSLSP
light: DIVMTQSPATLSLSPGERATLSCTSSQSVYHANWLSWFQQKPGQPPKLLIYWASTLAYGVPSRFSGSGSGTDFTLTISSLQPEDAATYYCAGGYGGGRYAFGQGTKVEIKRTVAAPSVFIFPPSDEQLKSGTASVVCLLNNFYPREAKVQWKVDNALQSGNSQESVTEQDSKDSTYSLSSTLTLSKADYEKHKVYACEVTHQGLSSPVTKSFNRGEC
notes: Fc variant of MS1032LO06-SG1; positions in EU numbering
In general, Kd refers to a measure of binding affinity in units of concentration. For the molecule B1, the “KD fold (SG1 = 1)” value in assay [1] was 0.17 fold. For the same molecule, the Kd came out at 2.1 µM in assay [2], 2.2 µM in assay [3] and 7.4 µM in assay [4].

B2: M103205H795-MY208/M103202L889-SK1 (antibody, human IgG1, kappa, name in EU numbering)
heavy: B1 heavy with E270D, G273P, Q297L
light: B1 light
notes: as for B1
As to B2, the dissociation constant Kd in [5] amounted to 6.7 µM; in assay [2], 0.028 µM; in [3] it was 0.83 µM; in [6] it was 2.1 µM; in [7], 1.1 µM.

B3: M103205H795-MY440/M103202L889-SK1 (antibody, human IgG1, kappa, name in EU numbering)
heavy: B1 heavy with L237W, E270D, G273P, Q297L, A332K
light: B1 light
notes: substitutions in EU numbering, introduced into M103205H795-SG1
Consider B3, for which the “KD fold (SG1 = 1)” value in [8] turned out to be 3.9 fold; in assay [9], 0.04 fold; in assay [10], 0.03 fold.

B4: M103205H795-MY209/M103202L889-SK1 (antibody, human IgG1, kappa, name in EU numbering)
heavy: B1 heavy with E270D, G273P, Q297L, K328T, A332K
light: B1 light
notes: as for B3
Consider B4, for which the “KD fold (SG1 = 1)” value in [10] was 0.09 fold.

B5: M103205H795-MY207/M103202L889-SK1 (antibody, human IgG1, kappa, name in EU numbering)
heavy: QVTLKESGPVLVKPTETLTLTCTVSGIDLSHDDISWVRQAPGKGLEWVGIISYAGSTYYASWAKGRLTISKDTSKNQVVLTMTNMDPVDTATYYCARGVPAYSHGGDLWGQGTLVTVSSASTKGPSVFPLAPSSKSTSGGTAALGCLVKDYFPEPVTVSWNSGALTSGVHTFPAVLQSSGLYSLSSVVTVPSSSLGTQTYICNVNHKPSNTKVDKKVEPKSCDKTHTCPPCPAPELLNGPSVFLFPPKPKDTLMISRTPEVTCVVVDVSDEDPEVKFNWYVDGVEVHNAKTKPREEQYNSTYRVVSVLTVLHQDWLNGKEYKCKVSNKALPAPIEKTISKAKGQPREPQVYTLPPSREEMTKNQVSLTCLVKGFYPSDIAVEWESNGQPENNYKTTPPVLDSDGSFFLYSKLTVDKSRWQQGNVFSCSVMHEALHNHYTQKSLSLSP
light: B1 light
notes: as for B1
In the case of B5, the Kd was 6.9 µM in assay [5], 4.1 µM in [2], 1.3 µM in assay [3] and 1.5 µM in assay [7].

B6: M103205H795-MY183/M103202L889-SK1 (antibody, human IgG1, kappa, name in EU numbering)
heavy: B1 heavy with G273P, P398W
light: B1 light
notes: EU numbering
Consider B6, for which the figures for the “KD fold (SG1 = 1)” value in assay [11], in [9] and in assay [12] were 2.6 fold, 0.1 fold and 4.7 fold, respectively. Further, the dissociation constant (Kd) came out at 3.5 µM in [9] and 7.7 µM in assay [10].

B7: M103205H795-MY115/M103202L889-SK1 (antibody, human IgG1, kappa, name in EU numbering)
heavy: B1 heavy with S269A, G273P, P398M
light: B1 light
notes: as for B1
In the case of B7, the “KD fold (SG1 = 1)” value in assay [1] came to 0.42 fold. Also, the dissociation constant (Kd) was 7.6 µM in [5], 0.85 µM in [2] and 0.32 µM in [7].

B8: M103205H795-MY182/M103202L889-SK1 (antibody, human IgG1, kappa, name in EU numbering)
heavy: B1 heavy with G273P, P398V
light: B1 light
notes: EU numbering
For the molecule B8, in [9], the “KD fold (SG1 = 1)” value worked out at 0.1 fold and the Kd is 3.6 µM. Further, in [10], the “KD fold (SG1 = 1)” value is 0.17 fold.

B9: M103205H795-MY200/M103202L889-SK1 (antibody)
heavy: B1 heavy with S241V, G273P, A332K
light: B1 light
For the molecule B9, the “KD fold (SG1 = 1)” value in [9] came out at 0.08 fold; in assay [10], 0.09 fold.

B10: M103205H795-MY204/M103202L889-SK1 (antibody, human IgG1, kappa, name in EU numbering)
heavy: B1 heavy with S241V, G273P, Q297L, A332K
light: B1 light
notes: as for B1
For the molecule B10, the figures for the equilibrium dissociation constant (Kd) in [2], in assay [7] and in assay [4] were 3.5 µM, 1.5 µM and 11 µM, respectively.

B11: M103205H795-MY212/M103202L889-SK1 (antibody, human IgG1, kappa, name in EU numbering)
heavy: B1 heavy with S241V, E270D, G273P, Q297L, K328T, A332K
light: B1 light
notes: as for B3
As for B11, the “KD fold (SG1 = 1)” value in assay [9] came to 0.14 fold; in [12], 7.5 fold; in assay [10], 0.17 fold.

B12: M103205H795-MY451/M103202L889-SK1 (antibody, human IgG1, kappa, name in EU numbering)
heavy: B1 heavy with P234N, N238T, E270D, G273P, A332K
light: B1 light
Consider B12, for which, in assay [13], the “KD fold (SG1 = 1)” value was found to be 0.2 fold.
